Test [1] deals with zonula occludens-1 (ZO-1), endogenous protein of prostate cancer cells and tumor specimens (UniProt Q07157). Kind of test: in situ proximity ligation assay in PC-3CTRwt cells, 50 nM CT for 30 seconds.
The target is the same in test [2]. Kind of test: cell-based or functional assay.
Test [3] has as its target T1, zonula occludens-1 (ZO-1), endogenous protein of prostate cancer cells and tumor specimens (UniProt Q07157 1-1748, limits assumed).
T1 construct: whole, on cells; Intracellular protein; detected in cell lysates or fixed cells with anti-ZO-1 serum; The cells and tissues are human; also called tight junction protein 1; TJP-1
Kind of test: in situ proximity ligation assay in PC-3CTRΔESS cells.

Test [4] has as its target T2, ZO-1wt-YFP (wild-type ZO-1 fused to yellow fluorescent protein, ZO-1wt-EYFP-N1) (UniProt Q07157 1-1748).
T2 construct: whole, on cells; also called ZO-wt-YFP; ZO-1-YFP; not shown: EYFP of the EYFP-N1 plasmid
As to the kind of experiment: acceptor photobleaching FRET microscopy in live PC-31 cells.

Test [5] addresses T1, zonula occludens-1 (ZO-1), endogenous …. As to the kind of experiment: GST pull-down from PC-3 cell lysates, ZO-1 immunoblot.

zonula occludens-1 (ZO-1), endogenous protein of prostate cancer cells and tumor specimens (UniProt Q07157), sequence (Q07157 whole entry): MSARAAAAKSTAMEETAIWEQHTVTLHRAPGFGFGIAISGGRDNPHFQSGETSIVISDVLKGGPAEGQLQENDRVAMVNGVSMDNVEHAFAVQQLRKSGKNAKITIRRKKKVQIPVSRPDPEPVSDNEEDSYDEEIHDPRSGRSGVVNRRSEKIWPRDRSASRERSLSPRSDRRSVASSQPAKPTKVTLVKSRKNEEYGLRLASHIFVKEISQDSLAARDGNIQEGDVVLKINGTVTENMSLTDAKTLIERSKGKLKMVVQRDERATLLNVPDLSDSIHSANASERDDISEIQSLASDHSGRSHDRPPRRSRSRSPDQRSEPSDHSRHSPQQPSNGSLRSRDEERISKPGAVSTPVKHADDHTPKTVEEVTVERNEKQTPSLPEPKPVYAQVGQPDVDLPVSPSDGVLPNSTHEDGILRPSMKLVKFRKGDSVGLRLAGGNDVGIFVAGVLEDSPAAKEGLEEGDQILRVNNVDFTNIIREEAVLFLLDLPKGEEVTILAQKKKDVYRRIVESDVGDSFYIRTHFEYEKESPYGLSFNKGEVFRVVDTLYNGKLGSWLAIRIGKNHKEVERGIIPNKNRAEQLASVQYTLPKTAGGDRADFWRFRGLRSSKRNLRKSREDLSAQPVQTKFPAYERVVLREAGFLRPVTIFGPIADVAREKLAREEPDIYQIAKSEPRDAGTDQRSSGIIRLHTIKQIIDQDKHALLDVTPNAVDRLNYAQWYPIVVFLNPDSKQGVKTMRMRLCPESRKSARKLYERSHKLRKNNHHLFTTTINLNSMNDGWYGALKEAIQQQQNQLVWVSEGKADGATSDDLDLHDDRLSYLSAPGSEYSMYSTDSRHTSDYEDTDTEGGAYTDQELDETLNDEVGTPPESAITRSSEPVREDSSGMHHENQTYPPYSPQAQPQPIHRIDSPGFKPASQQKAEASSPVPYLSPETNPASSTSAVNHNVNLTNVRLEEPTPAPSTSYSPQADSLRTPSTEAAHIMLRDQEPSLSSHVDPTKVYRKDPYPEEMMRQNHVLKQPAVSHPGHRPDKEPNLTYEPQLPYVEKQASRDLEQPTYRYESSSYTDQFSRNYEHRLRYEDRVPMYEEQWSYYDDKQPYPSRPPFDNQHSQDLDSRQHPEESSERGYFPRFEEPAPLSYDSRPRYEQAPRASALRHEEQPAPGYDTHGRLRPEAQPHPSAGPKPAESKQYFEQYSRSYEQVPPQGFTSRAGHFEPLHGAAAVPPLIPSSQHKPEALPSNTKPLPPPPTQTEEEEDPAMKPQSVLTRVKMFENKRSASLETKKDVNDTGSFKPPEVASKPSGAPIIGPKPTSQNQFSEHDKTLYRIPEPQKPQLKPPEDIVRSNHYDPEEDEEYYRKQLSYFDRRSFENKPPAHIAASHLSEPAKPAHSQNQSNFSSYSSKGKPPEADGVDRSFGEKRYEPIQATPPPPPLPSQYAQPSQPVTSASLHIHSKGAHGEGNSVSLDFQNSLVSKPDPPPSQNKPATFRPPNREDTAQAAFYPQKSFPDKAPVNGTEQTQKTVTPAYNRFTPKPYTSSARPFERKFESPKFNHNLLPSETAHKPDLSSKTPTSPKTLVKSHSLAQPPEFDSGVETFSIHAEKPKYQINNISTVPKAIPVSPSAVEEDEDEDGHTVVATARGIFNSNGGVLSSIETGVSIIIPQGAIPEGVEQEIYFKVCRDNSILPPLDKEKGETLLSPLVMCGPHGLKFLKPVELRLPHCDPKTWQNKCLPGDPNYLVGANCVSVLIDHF
T1 sequence (Q07157 whole entry): as above
T2 sequence (Q07157 whole entry, the tested form may be a part): as the sequence (Q07157 whole entry) above

In the case of “FLAG-CTRwt (full-length wild-type calcitonin receptor, FLAG-tagged, expressed in PC-3 / PC-31 cells) (from UniProt P30988 25-474)”, in test [1], the fold increase in CTR-ZO-1 interactions (PLA dots) after CT against no CT came out at 80 fold. In test [2], this molecule returned a decrease in transepithelial electric resistance (TER) of polarized PC-3 cells of 40% and an invasion through Matrigel after 50 nM CT of 2.5 fold.

B1: FLAG-CTRΔESS (full-length calcitonin receptor with the C-terminal PDZ-binding motif ESSA replaced by AAAA, FLAG-tagged) (receptor, human, UniProt P30988 25-474, looked up)
chain: AFSNQTYPTIEPKPFLYVVGRKKMMDAQYKCYDRMQQLPAYQGEGPYCNRTWDGWLCWDDTPAGVLSYQFCPDYFPDFDPSEKVTKYCDEKGVWFKHPENNRTWSNYTMCNAFTPEKLKNAYVLYYLAIVGHSLSIFTLVISLGIFVFFRSLGCQRVTLHKNMFLTYILNSMIIIIHLVEVVPNGELVRRDPVSCKILHFFHQYMMACNYFWMLCEGIYLHTLIVVAVFTEKQRLRWYYLLGWGFPLVPTTIHAITRAVYFNDNCWLSVETHLLYIIHGPVMAALVVNFFFLLNIVRVLVTKMRETHEAESHMYLKAVKATMILVPLLGIQFVVFPWRPSNKMLGKIYDYVMHSLIHFQGFFVATIYCFCNNEVQTTVKRQWAQFKIQWNQRWGRRPSNRSARAAAAAAEAGDIPIYICHQELRNEPANNQGEESAEIIPLNIIEQAAAA
notes: whole, on cells; also called FLAG-CTR-ΔPDZ; CTRΔPDZ; not shown: FLAG tag at the 5' end of the construct
Regarding B1, the binding result in test [3] is on record as “no binding”.

B2: CTRΔESS-CFP (calcitonin receptor with ESSA replaced by AAAA, fused to cyan fluorescent protein, CTRΔESS-ECFP-N1) (receptor, human, UniProt P30988 25-474, looked up)
chain: B1 chain
notes: whole, on cells; also called CTRΔESS (CTRΔPDZ)-CFP; not shown: ECFP of the ECFP-N1 plasmid
On to B2, for which the binding result in test [4] is listed as “no binding”.

B3: GST-CTR-CΔESS fusion protein (GST fused to the intracellular C-terminal domain of CTRΔESS, aa 441-476) (other, human, UniProt P30988 441-474, looked up)
chain: YICHQELRNEPANNQGEESAEIIPLNIIEQAAAA
notes: range 441-476; also called CTR-C-ΔPDZ; not shown: GST from the pGEX vector
For B3, the binding result in test [5] was “no binding (tested: 2 µg fusion protein)”.
